Test [1] addresses nine affinity purified ACA antibodies. Nature of the test: competitive ELISA on CL/β2-GPI plates, peptide monomer 1 mg/mL; average of nine ACA. For orientation: An ELISA detects its analyte on a solid surface through an enzyme-linked reagent.
For test [2], the target named is ACA-6701 aPL antibody. Kind of test: fluorescence polarization.
Test [3] deals with ACA-6641 aPL antibody. Kind of test: competitive ELISA on CL/β2-GPI plates, peptide monomer 1 mg/mL, affinity-purified ACA.
The target of test [4] is ACA-6626 aPL antibody. The description is as above.
Test [5] deals with ACA-6701 aPL antibody. The description is as above.
The target of test [6] is ACA-7005 aPL antibody. Described as above.
For test [7], the target named is ACA-6501 aPL antibody. Described as above.
Test [8] has as its target ACA-6903 aPL antibody. The test is described as above.
In test [9] the target is ACA-7004 aPL antibody. The test is described as above.
In test [10] the target is ACA-6644 aPL antibody. The test is described as above.
In test [11] the target is ACA-6638 aPL antibody. Described as above.
Test [12] concerns the target ACA-6701 aPL antibody. Nature of the test: competitive fluorescence polarization (cFP), displacement of CB2*-F.
In test [13] the target is ACA-6501 aPL antibody. Kind of test: aPL antibody binding of modified 3B10 peptides.
Test [14] has as its target ACA-6501 aPL antibody. Nature of the test: competitive ELISA on plate-bound tetravalent 3B10, ACA-6501 serum.
In test [15] the target is ACA-6501 aPL antibody. Kind of test: competitive ELISA on plate-bound tetravalent 3B10.
Test [16] has as its target nine affinity purified ACA antibodies. Nature of the test: competitive ELISA on CL/β2-GPI plates, peptide monomer 200 µg/mL; average of nine ACA.
For test [17], the target named is ACA-6641 aPL antibody. Kind of test: competitive ELISA on CL/β2-GPI plates, peptide monomer 200 µg/mL, affinity-purified ACA.
In test [18] the target is ACA-6626 aPL antibody. Described as above.
The target of test [19] is ACA-6701 aPL antibody. Described as above.
Test [20] addresses ACA-7005 aPL antibody. The test is described as above.
In test [21] the target is ACA-6501 aPL antibody. Described as above.
Test [22] deals with ACA-6903 aPL antibody. The test is described as above.
Test [23] concerns the target ACA-7004 aPL antibody. Described as above.
Test [24] deals with ACA-6644 aPL antibody. The description is as above.
The target of test [25] is ACA-6638 aPL antibody. The test is described as above.
For test [26], the target named is ACA-6635 aPL antibody. Kind of test: competitive ELISA, ACA serum on cardiolipin/β2-GPI-coated plates.
Test [27] concerns the target ACA-6641 aPL antibody. The test is described as above.
Test [28] concerns the target ACA-6626 aPL antibody. The test is described as above.
The target of test [29] is ACA-6701 aPL antibody. Described as above.
Test [30] addresses ACA-7005 aPL antibody. The description is as above.
Test [31] deals with ACA-6501 aPL antibody. The test is described as above.
Test [32] has as its target ACA-6903 aPL antibody. The test is described as above.
In test [33] the target is ACA-7004 aPL antibody. The test is described as above.
The target of test [34] is ACA-6638 aPL antibody. The description is as above.
Test [35] concerns the target ACA-6644 aPL antibody. Kind of test: competitive ELISA, ACA serum (printed 664) on cardiolipin/β2-GPI-coated plates.
In test [36] the target is ACA-6635 aPL antibody. Kind of test: competitive ELISA, peptide at 1.8 mg/mL; members from Table 7.
Test [37] has as its target ACA-6641 aPL antibody. Described as above.
Test [38] addresses ACA-6626 aPL antibody. Described as above.
The target of test [39] is ACA-6701 aPL antibody. The test is described as above.
In test [40] the target is ACA-7005 aPL antibody. The description is as above.
In test [41] the target is ACA-6501 aPL antibody. Described as above.
Test [42] deals with ACA-6903 aPL antibody. Described as above.
Test [43] deals with ACA-7004 aPL antibody. The test is described as above.
Test [44] addresses ACA-6644 aPL antibody. The description is as above.
In test [45] the target is ACA-6638 aPL antibody. Described as above.
In test [46] the target is ACA-6501 aPL antibody. Kind of test: competitive ELISA I50; antibody not given, ACA-6501 serum on CL/β2-GPI assumed (Ex. 4B).
Test [47] addresses ACA sera [1]-[10] of Table 7. Kind of test: competitive ELISA; mean ± sd over the ten ACA sera.

From patent US6410775 come the findings set out here.

“And” between values parts separate entries of the source, which are not always exact repeats. Equal values may be shown once. Bridge positions count the residues as written; N and C are the ends. Square brackets hold non-standard residues; d marks the D form. Ends that are not written are not given here. αMeP = C[C@@]1(C(=O)O)CCCN1; ATU = not defined here

Molecule AGPCLLLAPDRCPG [peptide ACA-6501/3B10 … (monomer)] came in with a percent inhibition (Ave.) in test [1] of 65%. Moreover, the fold weaker binding against CB2* in test [2] was found to be 9 fold. Besides, the percent inhibition in test [3] was 52%; in [4] it was 76%; in test [5], 51%; in test [6], 47%; in [7], 60%; in test [8] it was 69%. The values for the percent inhibition in test [9], in test [10] and in test [11] were 87%, 55% and 87%, respectively. The same molecule yielded a Ki in test [12] of 313 nM.

AGPCLLLA[αMeP]DRCPG (cysteine pairing not given here) [peptide 727 (3B10 with αMe-Pro at the 9 position)]: the fold enhancement in immunoreactivity against 3B10 in test [13] was 6 fold. This molecule gave a fold increase in activity against native 3B10 in test [14] of 4 fold.

As to PCLLLAPDRCPG [peptide 139 (3B10 lacking the framework Ala-Gly at the amino terminus)], in [15], the fold increase of the 50% inhibition concentration against peptide 142 came to 8 fold.

The molecule GILALDYVGG [peptide ACA-6644/CBf …] came in with a percent inhibition (Ave.) in test [16] of 39%. The percent inhibition was 28% in test [17]; 37% in [18]; 22% in test [19]; 57% in test [20]; 37% in test [21]; 43% in test [22]. For the same molecule, the percent inhibition in test [23] turned out to be 54%; in test [24] it was 18%; in test [25], 60%.

Take AGPCLGVLGKLCPG [peptide ACA-6641/3G3 … (LJP 688)]: the IC50 in test [26] was 1000 µg/mL; in test [27], 890 µg/mL and 510 µg/mL; in test [28] it was 1090 µg/mL; in test [29], 1070 µg/mL; in test [30] it was 750 µg/mL; in test [31], 890 µg/mL and 1100 µg/mL. In addition, the IC50 was determined as 800 µg/mL in test [32]; 670 µg/mL in test [33]; 810 µg/mL in [34]; 760 µg/mL in test [35]; 850 µg/mL in [46]; 860 µg/mL in [47]. Besides, in test [1], the percent inhibition (Ave.) is 97%. The percent inhibition was greater than 80% in test [36]; greater than 80% in [37]; greater than 80% in test [38]; greater than 80% in [39]; greater than 80% in test [40]; 80% in test [41]. The percent inhibition is greater than 80% in [42]; greater than 80% in test [43]; greater than 80% in [44]; greater than 80% in [45]; 93% in test [3]; 100% in [4]. Besides, the percent inhibition in [5] was 100%; in test [6] it was 95%; in test [7], 86%; in test [8], 100%; in test [9] it was 100%; in test [10], 100%. Moreover, the percent inhibition in test [11] amounted to 100%.

For CLGVLGKLC (not fully specified; C-terminal ATU-Y as printed (ATU linker, then Tyr)) [3G3 others 1: …-ATU-Y], the IC50 in test [46] was 300 µg/mL.

B1: 3G3 others 2: Y-ATU-… (peptide)
peptide: {Tyr-ATU}-CLGVLGKLC
modifications: not fully specified (bridges); printed as Y-ATU-CLGVLGKLC; cysteine pairing not given here; reading uncertain
On to B1, for which, in test [46], the IC50 came out at 170 µg/mL. This IC50 lies about 1.8-fold lower than the previous one.

Regarding AGPLSDPGYVRNIFHPG [peptide ACA-6701/3B1 …], the percent inhibition (Ave.) in test [1] turned out to be 52%. Also, the percent inhibition in test [3] turned out to be 43%; in test [4], 43%; in test [5], 96%; in test [6], 23%; in test [7], 41%; in test [8], 51%. For the same molecule, the percent inhibition in test [9] was 72%; in test [10], 37%; in test [11], 65%.

GPCILLARDRCG (disulfide 3-11 (inferred)) [CB2* …] came in with a fold improvement in binding against CB2*-F in test [2] of 14 fold. This molecule also displayed a Ki in test [12] of 35 nM.

On to CLGVLGKLC (not fully specified; "TGR resin" printed after the C-terminus) [3G3 others 3: … TGR resin], for which the IC50 in [46] was 500 µg/mL.

As a reminder, the Ki is a dissociation constant, usually derived from enzyme kinetics or from competition with a known ligand. The IC50 is the concentration that inhibits the measured activity by half. Lower therefore signals inhibition by little substance.
